Reference: patent US20070225240A1, “Screening Assay and Treatment” (priority 2003, published 2007)
Like-named read-outs stand apart in the source and are kept apart here. Values belong to the molecule of their own block, whether it stands above or below them.

Legend:
[1] = tested on: T1, GST-ASPP2 (693-1128), non-phosphorylated
T1 sequence: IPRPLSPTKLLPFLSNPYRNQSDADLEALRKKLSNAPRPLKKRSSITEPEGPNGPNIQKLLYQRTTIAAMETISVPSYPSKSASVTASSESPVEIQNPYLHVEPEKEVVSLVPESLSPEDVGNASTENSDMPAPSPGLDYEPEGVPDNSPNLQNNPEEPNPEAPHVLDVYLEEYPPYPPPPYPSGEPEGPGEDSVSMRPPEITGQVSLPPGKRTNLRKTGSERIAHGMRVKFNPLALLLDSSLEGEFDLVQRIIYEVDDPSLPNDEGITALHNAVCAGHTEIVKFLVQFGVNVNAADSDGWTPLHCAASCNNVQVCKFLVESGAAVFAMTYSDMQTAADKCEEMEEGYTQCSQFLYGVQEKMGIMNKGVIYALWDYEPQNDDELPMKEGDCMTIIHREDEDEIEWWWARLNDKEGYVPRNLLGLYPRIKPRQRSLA

[2] = biological target: full length ASPP2, V5-tagged (transfected) (Homo sapiens (Human)) (UniProt Q13625); test: cell-based or functional assay
[3] = biological target: full length ASPP2, V5-tagged (transfected) (Homo sapiens (Human)) (UniProt Q13625); test: cell-based or functional assay; remark: listed apart in the source
[4] = biological target: T2, full length ASPP1, V5-tagged (transfected) (Homo sapiens (Human)) (UniProt Q96KQ4); test: cell-based or functional assay
T2 sequence: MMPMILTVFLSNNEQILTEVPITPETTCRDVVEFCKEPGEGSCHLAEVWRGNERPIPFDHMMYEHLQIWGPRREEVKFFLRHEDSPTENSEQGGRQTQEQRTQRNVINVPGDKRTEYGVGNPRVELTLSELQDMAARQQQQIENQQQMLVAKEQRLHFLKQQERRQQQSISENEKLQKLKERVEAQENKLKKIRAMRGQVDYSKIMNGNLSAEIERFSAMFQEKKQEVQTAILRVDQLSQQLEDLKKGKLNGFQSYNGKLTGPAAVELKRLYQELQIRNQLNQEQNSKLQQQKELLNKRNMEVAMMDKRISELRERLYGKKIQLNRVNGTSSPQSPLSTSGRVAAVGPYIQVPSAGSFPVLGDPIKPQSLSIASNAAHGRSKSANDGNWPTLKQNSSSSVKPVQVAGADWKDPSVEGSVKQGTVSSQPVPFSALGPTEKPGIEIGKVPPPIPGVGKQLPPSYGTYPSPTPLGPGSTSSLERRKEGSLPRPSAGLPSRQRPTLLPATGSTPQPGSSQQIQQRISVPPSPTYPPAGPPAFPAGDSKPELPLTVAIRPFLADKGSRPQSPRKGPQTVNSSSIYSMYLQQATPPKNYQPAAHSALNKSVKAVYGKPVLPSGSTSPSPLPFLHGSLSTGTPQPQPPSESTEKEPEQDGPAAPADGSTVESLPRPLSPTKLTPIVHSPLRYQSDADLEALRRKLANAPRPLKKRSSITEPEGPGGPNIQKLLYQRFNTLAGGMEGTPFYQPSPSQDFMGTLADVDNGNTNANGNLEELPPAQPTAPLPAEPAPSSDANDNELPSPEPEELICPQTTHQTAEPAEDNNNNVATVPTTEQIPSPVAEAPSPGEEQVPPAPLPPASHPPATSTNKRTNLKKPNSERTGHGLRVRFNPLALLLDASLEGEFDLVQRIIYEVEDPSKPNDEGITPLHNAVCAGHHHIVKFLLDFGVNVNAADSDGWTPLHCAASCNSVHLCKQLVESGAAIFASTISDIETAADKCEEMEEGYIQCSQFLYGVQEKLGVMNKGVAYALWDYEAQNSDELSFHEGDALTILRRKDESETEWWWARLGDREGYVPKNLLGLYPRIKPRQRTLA

[5] = biological target: purified recombinant Ras loaded with GTP; test: in vitro immunoprecipitation of purified proteins with V5 antibody, intensity of the ras bands (FIG. 14C-D)
[6] = biological target: purified recombinant Ras loaded with GTP; test: in vitro immunoprecipitation with V5 antibody, intensity of the Ras bands (FIG. 23B)
[7] = tested on: Ras; test: In vitro immunoprecipitation of GDP/GTP-loaded Ras with ASPP1 fragment; type: binding; conditions: purified recombinant proteins, V5 immunoprecipitation, band intensity
From the text: FIG. 14 illustrates that purified N-term ASPP1 binds directly in a preferential manner to Ras.GTP. A. Purified ras was loaded with tritium labelled -GDP, -GTP or not loaded as a control. The cpm counts of the tritium are shown. The differences in cpm is due to the fact that GDP and GTP were not tritium-labelled at the same level. B. Relative loading of ras-GDP and ras-GTP, showing the mol of nucleotide bound to ras. Both ras-GDP and ras-GTP were loaded with an equal amount of nucleotide. C. Loaded ras-GDP and ras-GTP with or without purified N-terminus ASPP1 was immunoprecipitated with a V5 antibody against the ASPP1 fragment. The immunoprecipitations were western blotted against ras to see whether there was direct and preferential binding of ras-GDP and ras-GTP to the amino-terminus of ASPP1. D. The intensity of the ras-GDP and ras-GTP bands pulled down by N-term ASPP1 were measured and shown as a graph. N-terminus ASPP1 binds ras-GTP four fold more strongly than it does to ras-GDP;
FIG. 23. Amino-terminus ASPP1 and ASPP2 preferentially bind activated Ras in vitro and in vivo. (A) Sequence homology between the amino-termini of ASPP1 and ASPP2 and the Ras-association domains (RAD) of RGL2 and AF-6. (B) The Ras protein loaded with either tritium-labelled GDP or GTP, was added to V5-tagged recombinant ASPP1 fragment (1-308) and immunoprecipitated with V5 antibody. As a negative control Ras-GDP and Ras-GTP were immunoprecipitated with V5 antibody in the absence of the ASPP1 fragment. The ASPP1 fragment preferentially bound Ras-GTP to Ras-GDP. The intensity of the bands representing immunoprecipitated Ras was quantified and the values shown as a bar graph in the right panel. […] The ASPP proteins were detected with mAbASPP1.54.1 that is known to cross-react with both ASPP1 and ASPP2. […]
2.5 μg of recombinant protein purified from Escherichia coli was incubated in a total volume of 320 μl assay buffer containing 2 μCi [3H] […] An aliquot of each sample had its tritium content measured to check the equal loading of GDP and GTP. […]

Molecule: p38SAPK
- in vitro phosphorylation (P32 incorporation) [1]: MAPK1, PKA, p38SAPK and p90rsk were all found to be able to phosphorylate ASPP2

- transactivation function of p53 (bax-luciferase reporter, Saos2 cells) [2]: 3 fold
- transactivation function of p53 (bax-luciferase reporter, Saos2 cells) [3]: 2.5 fold
- transactivation function of p53 (bax-luciferase reporter, Saos2 cells) [4]: 2.5 fold
Molecule: oncogenic H-RasV12, haemagglutinin-tagged (from UniProt P01112 1-186)

Molecule: recombinant MAPK1
- in vitro phosphorylation (P32 incorporation) [1]: MAPK1, PKA, p38SAPK and p90rsk were all found to be able to phosphorylate ASPP2
- in vitro phosphorylation assay with 32P-labelled ATP [1]: When compared to p38 SAPK, MAPK1 was clearly able to phosphorylate the ASPP2 fragment in vitro

- transactivation function of p53 (bax-luciferase reporter, Saos2 cells) [3]: 2.5 fold
- transactivation function of p53 (bax-luciferase reporter, Saos2 cells) [4]: 2.5 fold
Molecule: oncogenic K-RasV12, haemagglutinin-tagged (from UniProt P79800 1-185)

Molecule: PKA
- in vitro phosphorylation (P32 incorporation) [1]: MAPK1, PKA, p38SAPK and p90rsk were all found to be able to phosphorylate ASPP2

Molecule: p90rsk
- in vitro phosphorylation (P32 incorporation) [1]: MAPK1, PKA, p38SAPK and p90rsk were all found to be able to phosphorylate ASPP2

- fold binding to ras-GTP over ras-GDP [5]: 4 fold
- fold affinity for Ras-GTP over Ras-GDP [6]: 4 fold
B1: V5-tagged recombinant ASPP1 fragment (1-308) (protein, not shown: small tags and cut ends)
chain: MMPMILTVFLSNNEQILTEVPITPETTCRDVVEFCKEPGEGSCHLAEVWRGNERPIPFDHMMYEHLQIWGPRREEVKFFLRHEDSPTENSEQGGRQTQEQRTQRNVINVPGDKRTEYGVGNPRVELTLSELQDMAARQQQQIENQQQMLVAKEQRLHFLKQQERRQQQSISENEKLQKLKERVEAQENKLKKIRAMRGQVDYSKIMNGNLSAEIERFSAMFQEKKQEVQTAILRVDQLSQQLEDLKKGKLNGFQSYNGKLTGPAAVELKRLYQELQIRNQLNQEQNSKLQQQKELLNKRNMEVAMMDK

- binding of Ras-GTP relative to Ras-GDP [7]: 4 fold
- binding of Ras-GTP relative to Ras-GDP ([7]; listed as N-terminus ASPP1): four fold
- binding of Ras-GTP relative to Ras-GDP ([7]; listed as N-terminus of ASPP1): four-fold
B2: ASPP1 fragment (1-308): V5-tagged recombinant ASPP1 fragment (1-308) containing the Ras-association domain (protein)
chain: B1 chain
modifications: left off: small tags and cut ends
notes: V5-tagged recombinant ASPP1 fragment (1-308) containing the Ras-association domain
